“Also recorded” adds a separate entry of the source. Blank lines part the entries; values can stand above or below the molecule they belong to.
Columns and labels:
[1] = target: T1, APC activation by CDH1 (Homo sapiens, UniProt P30260+Q9UJX3); assay: In vitro ubiquitination assay with [125I]-labelled cyclin B as substrate; assay type: biochemical; conditions: APC loaded with recombinant CDH1 in presence of peptide at 1 mg/ml, cyclin B fragment substrate
T1 construct: endogenous in cells; host or cells: APC immunopurified from HeLa cell extracts; CDH1 and cyclin B fragment recombinant
Description: (§1) Immunopurified holo-APC or subcomplexes were washed and incubated with purified recombinant CDH1 (0.5-1.0 μg per 10 μl bead volume) in TBS/T, or with insect cell lysates in TBS/T containing recombinant CDH1 proteins as indicated. Peptides for competition were used at 1 mg/ml, with the addition of 0.5 mM DTT to the buffer. Subsequently, bead-bound complexes were washed 3× with TBS/T and immunoblotted for binding of CDH1 or used in ubiquitination assays. In vitro ubiquitination reactions were performed as described (Kramer, E. R., et al., Curr Biol 8:1207-10 (1998)). Securin-myc-his substrate was detected by immunoblotting with monoclonal anti-Myc 9E10 antibodies. Alternatively, an iodinated N-terminal recombinant fragment of sea urchin cyclin B (amino acids 13-110) was used and visualized by autoradiography (Gieffers, C., et al., Mol Cell 7:907-13 (2001)).
(§2) What are the mechanistic consequences of the observed interactions between IR tail peptides and APC subunits? To address this, it was tested if the peptides would influence APC activity in in vitro ubiquitination assays. Immunopurified APC was loaded with recombinant CDH1 in the presence or absence of IR-tail or control peptides, washed, and used to ubiquitinate a radioactively labeled fragment of cyclin B (FIG. 6B). […] In contrast, an N-terminal CDC20 peptide had no effect on APC activation.

[2] = target: T2, APC8 (Homo sapiens, UniProt Q9UJX2); assay: Peptide binding assay (matrix-coupled peptides), APC8; conditions: insect cell lysates; western blot
T2 construct: HisHA; made in house; host or cells: Sf9 or Hi5 insect cells (baculovirus), used as lysate
Description: (§3) Synthetic peptides used in binding and inhibition assays were […] (CDC20 C-terminus; SEQ ID NO:2), […] (CDH1 C-terminus; SEQ ID NO:1), […] (CDC20 N-terminus; SEQ ID NO:10), and CAVWSLSSCKPGFGVD (control; SEQ ID NO:11).
(§4) Peptide interaction assays were carried out as described in Wendt, K. S., et al., Nat Struct Biol 8:784-8 (2001). Synthetic peptides (see above) were immobilized via N-terminal cysteine residues onto maleinimide-activated POROS matrix ([…]) in 0.1 M HEPES, pH 7.9 for 3 hours. After washing with slightly acidic buffers, 100 μg of the resulting matrix were incubated with insect cell lysates containing recombinant APC subunits, or with fractions from anion chromatography, in total volumes of […] of TBS/T pH 7.5. After stringent washing in TBS/T 0.5 M NaCl, samples were analyzed by SDS-PAGE and immunoblotted with 12CA5 anti-HA antibodies or antibodies against APC subunits.
(§5) To test if APC3 would also interact with the C-termini of CDH1 and its related activator CDC20, insect cell lysates containing recombinantly expressed APC3 were incubated with synthetic peptides coupled to a matrix through their N-terminus. After washing, peptide-bound material was analyzed by western blot. […] In budding yeast, which lacks APC7, they share Cdc27p as their closest homologue.

[3] = target: T3, APC3 (Homo sapiens, UniProt P30260); assay: Peptide binding assay (matrix-coupled peptides), APC3
T3 construct: HisHA; made in house; host or cells: Sf9 or Hi5 insect cells (baculovirus), used as lysate
Description: as §3, §4, §5
(§6) In order to exclude any non-specific effects caused by incorrect folding of recombinantly expressed proteins, an alternative source of APC subunits was used in the peptide binding assays. As described above, late-eluting fractions from the ReSource Q column contained considerable amounts of the TPR subunits APC3, APC6, and APC7, while other subunits were found in lower abundance (FIG. 10).

[4] = target: T4, binding of recombinant CDH1 to APC (Homo sapiens, UniProt P30260+Q9UJX3); assay: CDH1 binding assay with competing peptides; conditions: peptides at 1 mg/ml; for effect of peptide on CDH1 binding to APC: quantitative immunoblotting with radiolabeled antibodies
T4 construct: endogenous in cells; host or cells: APC immunopurified from HeLa cell extracts; CDH1 recombinant, made in house
Description: as §1, §2

[5] = target: T5, APC7 (Homo sapiens, UniProt Q9UJX3); assay: Peptide binding assay (matrix-coupled peptides), APC7 and APC7 fragments; conditions: for binding of recombinant APC7 to matrix-coupled peptide: recombinant APC7 in insect cell lysates, western blot
T5 construct: HisHA; made in house; host or cells: Sf9 or Hi5 insect cells (baculovirus), used as lysate
Description: as §3, §4, §5, §6
Lastly, the region in APC7 responsible for binding to IR peptides was mapped.

[6] = target: T6, APC5 (Homo sapiens, UniProt Q9UJX4); assay: Peptide binding assay (matrix-coupled peptides), APC5; conditions: insect cell lysates; western blot
T6 construct: HisHA; made in house; host or cells: Sf9 or Hi5 insect cells (baculovirus), used as lysate
Description: as §3, §4, §5

[7] = target: T7, holo-APC (Homo sapiens, UniProt P30260+Q9UJX3); assay: Peptide binding assay with holo-APC containing fractions; conditions: APC-containing anion exchange fractions
T7 construct: endogenous in cells; host or cells: HeLa cells, Source15Q fractions eluting around 450 mM KCl
Description: as §3
Pellets from 5×10^9 logarithmically grown HeLa cells (4C, Belgium) were lysed in 20 mM TrisCl pH7.7, 150 mM KCl, 0.5 mM DTT, 0.1% Tween-20, Protease Inhibitor mix (Sigma) using a french press and cleared by 100,000×g centrifugation for 1 h. After filtration through a 0.45 μm filter, extracts were loaded onto a 60 ml Source15Q anion exchange column (Amersham) at 4 ml/min. The column was washed with 20 mM Tris-Cl pH7.7, 150 mM KCl, 0.5 mM DTT until a drop in A280 indicated the end of the flowthrough. Elution was carried out with a gradient from 150 mM to 600 mM KCl. […]
Peptide interaction assays were carried out as described in Wendt, K. S., et al., Nat Struct Biol 8:784-8 (2001). […] After stringent washing in TBS/T 0.5 M NaCl, samples were analyzed by SDS-PAGE and immunoblotted with 12CA5 anti-HA antibodies or antibodies against APC subunits.
It was tested if CDH1's C-terminus would be sufficient to interact with holo-APC. For this, APC-containing fractions were incubated with the peptide matrix and analyzed for binding of APC by detection of all subunits. […]

[8] = target: T8, APC6 (Homo sapiens, UniProt Q13042); assay: Peptide binding assay (matrix-coupled peptides), APC6; conditions: for binding of recombinant APC6 to matrix-coupled peptide: insect cell lysates, western blot
T8 construct: HisHA; made in house; host or cells: Sf9 or Hi5 insect cells (baculovirus), used as lysate
Description: as §3, §4, §5, §6

[9] = target: T9, CDC26 (Homo sapiens, UniProt Q8NHZ8); assay: Peptide binding assay (matrix-coupled peptides), CDC26; conditions: late-eluting Q column fractions from HeLa extracts; listed as CDH1 peptide
T9 construct: endogenous in cells; host or cells: HeLa cells, late-eluting Source15Q fractions
Description: as §3, §4, §6

[10] = target: native CDC26 from late-eluting anion exchange fractions of HeLa extract (human, UniProt Q8NHZ8 1-85); assay: matrix-coupled peptide pull-down from late-eluting Q column fractions, western blot
Description: as §4, §6

[11] = target: T10, recombinant HisHA-tagged APC5 (UniProt Q9UJX4 1-755); assay: matrix-coupled peptide pull-down from insect cell lysate, western blot
T10 construct: Expressed with baculovirus in insect cells; used as lysate; not shown: HisHA tag
Description: as §4
(§7) To test if APC3 would also interact with the C-termini of CDH1 and its related activator CDC20, insect cell lysates containing recombinantly expressed APC3 were incubated with synthetic peptides coupled to a matrix through their N-terminus. After washing, peptide-bound material was analyzed by western blot. […] APC7, on the other hand, interacted strongly with the CDH1 C-terminus and moderately with CDC20's C-terminus (FIG. 5A), in a manner very similar to APC3. […] In budding yeast, which lacks APC7, they share Cdc27p as their closest homologue.

[12] = target: T11, recombinant HisHA-tagged APC8 (UniProt Q9UJX2 1-597); assay: as above
T11 construct: Expressed with baculovirus in insect cells; used as lysate; also called APC8/CDC23; not shown: HisHA tag
Description: as §4, §7

[13] = late-eluting Q column fractions from HeLa extracts
[14] = recombinant APC3 in insect cell lysates, western blot
[15] = listed as C-terminal CDH1 peptide
[16] = listed as C-terminal peptide of CDH1
[17] = listed as C-terminal CDC20 peptide

T3 sequence (P30260 whole entry): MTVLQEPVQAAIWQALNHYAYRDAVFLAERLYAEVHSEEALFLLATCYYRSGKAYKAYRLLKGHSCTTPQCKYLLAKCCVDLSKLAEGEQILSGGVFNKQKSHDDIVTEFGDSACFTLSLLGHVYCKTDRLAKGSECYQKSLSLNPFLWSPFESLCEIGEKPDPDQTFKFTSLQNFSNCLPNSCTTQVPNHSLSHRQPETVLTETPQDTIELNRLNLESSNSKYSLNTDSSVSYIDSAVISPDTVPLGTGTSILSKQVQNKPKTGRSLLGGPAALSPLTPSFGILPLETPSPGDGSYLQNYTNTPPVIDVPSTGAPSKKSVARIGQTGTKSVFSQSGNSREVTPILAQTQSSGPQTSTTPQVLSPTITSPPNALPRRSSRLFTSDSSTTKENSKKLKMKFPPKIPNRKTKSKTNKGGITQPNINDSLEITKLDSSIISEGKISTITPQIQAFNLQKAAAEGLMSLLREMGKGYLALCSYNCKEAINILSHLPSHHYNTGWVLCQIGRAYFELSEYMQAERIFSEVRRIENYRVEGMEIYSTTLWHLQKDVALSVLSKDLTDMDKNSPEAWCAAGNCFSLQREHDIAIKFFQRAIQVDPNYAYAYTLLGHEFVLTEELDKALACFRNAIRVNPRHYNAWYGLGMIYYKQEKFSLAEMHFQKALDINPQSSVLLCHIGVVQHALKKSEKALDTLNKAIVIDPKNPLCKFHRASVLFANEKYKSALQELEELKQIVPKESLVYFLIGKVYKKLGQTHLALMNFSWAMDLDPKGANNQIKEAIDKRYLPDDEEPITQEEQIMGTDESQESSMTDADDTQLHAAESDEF
T5 sequence (Q9UJX3 whole entry, the tested form may be a part): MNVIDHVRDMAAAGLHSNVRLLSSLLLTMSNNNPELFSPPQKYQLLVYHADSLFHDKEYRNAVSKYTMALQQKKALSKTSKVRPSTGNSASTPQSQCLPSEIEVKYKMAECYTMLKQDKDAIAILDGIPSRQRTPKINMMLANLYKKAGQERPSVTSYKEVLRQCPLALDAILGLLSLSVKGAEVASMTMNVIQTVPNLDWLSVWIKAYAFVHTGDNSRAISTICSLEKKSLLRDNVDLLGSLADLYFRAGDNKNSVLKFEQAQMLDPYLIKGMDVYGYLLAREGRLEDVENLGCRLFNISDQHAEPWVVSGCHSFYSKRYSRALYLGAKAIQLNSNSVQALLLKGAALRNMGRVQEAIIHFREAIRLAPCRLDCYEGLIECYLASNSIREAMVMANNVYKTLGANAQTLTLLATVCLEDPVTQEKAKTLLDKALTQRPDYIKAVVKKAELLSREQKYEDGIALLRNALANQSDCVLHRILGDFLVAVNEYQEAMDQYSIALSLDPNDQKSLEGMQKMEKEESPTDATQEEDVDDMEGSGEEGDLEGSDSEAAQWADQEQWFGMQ
T8 sequence (Q13042 whole entry): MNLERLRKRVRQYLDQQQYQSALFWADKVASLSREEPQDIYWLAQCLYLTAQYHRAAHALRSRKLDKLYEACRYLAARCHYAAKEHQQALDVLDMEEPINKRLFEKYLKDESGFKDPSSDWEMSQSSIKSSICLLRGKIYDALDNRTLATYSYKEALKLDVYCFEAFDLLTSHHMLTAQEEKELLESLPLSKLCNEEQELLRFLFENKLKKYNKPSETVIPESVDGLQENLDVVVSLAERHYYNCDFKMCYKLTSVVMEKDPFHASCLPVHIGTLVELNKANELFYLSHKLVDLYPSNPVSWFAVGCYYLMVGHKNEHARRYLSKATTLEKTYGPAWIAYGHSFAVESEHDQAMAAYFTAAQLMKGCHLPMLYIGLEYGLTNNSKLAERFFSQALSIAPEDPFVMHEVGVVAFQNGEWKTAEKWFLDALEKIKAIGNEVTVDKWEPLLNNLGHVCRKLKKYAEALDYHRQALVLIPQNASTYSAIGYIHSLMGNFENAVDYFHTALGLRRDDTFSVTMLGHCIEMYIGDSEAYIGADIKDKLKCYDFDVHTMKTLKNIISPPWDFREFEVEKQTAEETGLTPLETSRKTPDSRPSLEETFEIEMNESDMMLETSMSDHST
T9 sequence (Q8NHZ8 whole entry): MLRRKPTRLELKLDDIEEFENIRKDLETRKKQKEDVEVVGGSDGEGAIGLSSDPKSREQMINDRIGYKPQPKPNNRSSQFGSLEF
T2 sequence (Q9UJX2 whole entry): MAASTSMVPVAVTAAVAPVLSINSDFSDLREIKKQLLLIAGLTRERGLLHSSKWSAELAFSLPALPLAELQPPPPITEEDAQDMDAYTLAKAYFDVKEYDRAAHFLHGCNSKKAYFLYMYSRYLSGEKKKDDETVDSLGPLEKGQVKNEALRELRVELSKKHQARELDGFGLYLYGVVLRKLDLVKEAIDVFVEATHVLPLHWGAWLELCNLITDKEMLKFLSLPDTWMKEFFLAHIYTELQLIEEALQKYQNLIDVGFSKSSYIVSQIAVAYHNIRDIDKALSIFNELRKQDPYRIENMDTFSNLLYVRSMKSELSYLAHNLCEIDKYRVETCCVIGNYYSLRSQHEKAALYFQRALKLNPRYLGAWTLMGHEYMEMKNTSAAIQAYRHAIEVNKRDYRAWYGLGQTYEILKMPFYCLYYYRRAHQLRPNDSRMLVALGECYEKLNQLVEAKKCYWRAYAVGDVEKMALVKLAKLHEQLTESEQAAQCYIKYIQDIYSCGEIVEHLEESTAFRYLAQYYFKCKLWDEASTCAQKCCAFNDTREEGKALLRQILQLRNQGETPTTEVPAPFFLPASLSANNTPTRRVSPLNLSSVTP
T11 sequence (Q9UJX2 whole entry): as above
T10 sequence (Q9UJX4 whole entry): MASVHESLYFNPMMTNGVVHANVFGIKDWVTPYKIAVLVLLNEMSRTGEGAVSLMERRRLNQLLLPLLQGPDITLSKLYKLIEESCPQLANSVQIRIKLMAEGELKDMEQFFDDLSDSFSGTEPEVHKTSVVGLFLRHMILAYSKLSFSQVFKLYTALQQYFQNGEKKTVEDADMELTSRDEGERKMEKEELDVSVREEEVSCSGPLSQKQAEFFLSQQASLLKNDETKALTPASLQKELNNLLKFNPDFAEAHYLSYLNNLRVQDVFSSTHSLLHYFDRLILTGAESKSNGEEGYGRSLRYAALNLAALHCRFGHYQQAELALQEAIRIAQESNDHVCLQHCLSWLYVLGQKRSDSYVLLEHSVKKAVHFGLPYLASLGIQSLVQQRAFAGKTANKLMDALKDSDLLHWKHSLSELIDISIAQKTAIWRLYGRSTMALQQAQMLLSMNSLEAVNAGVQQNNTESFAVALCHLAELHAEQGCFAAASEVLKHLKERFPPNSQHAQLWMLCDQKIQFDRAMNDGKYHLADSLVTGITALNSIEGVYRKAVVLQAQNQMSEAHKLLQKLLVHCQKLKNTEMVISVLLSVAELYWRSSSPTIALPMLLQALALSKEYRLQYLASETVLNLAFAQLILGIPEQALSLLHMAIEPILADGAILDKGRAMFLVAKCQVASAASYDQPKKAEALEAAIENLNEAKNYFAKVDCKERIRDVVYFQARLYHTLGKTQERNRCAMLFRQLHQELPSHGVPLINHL
T6 sequence (Q9UJX4 whole entry): as above
native CDC26 from late-eluting anion exchange fractions of HeLa extract, sequence (Q8NHZ8 whole entry): as the sequence (Q8NHZ8 whole entry) above

- effect of peptide on APC activation (ubiquitination activity) [1]: no effect
Molecule: CESDLHSLLQLDAPIPNAPPARW (listed as Homo sapiens) [N-terminal CDC20 peptide, synthetic peptide of the CDC20 N-terminus used as control, reference compound]

- binding of recombinant APC8 to matrix-coupled peptide [2]: did not bind
- binding of native APC3 to peptide matrix [3, 13]: significantly retained
- binding of recombinant APC3 to matrix-coupled peptide [3, 14]: even stronger binding
- inhibitory effect compared with the CDC20 C-terminal peptide ([4]; comparison of the two C-terminal peptides): stronger effect
- effect of peptide on CDH1 binding to APC [4, 15]: inhibit
- effect of peptide on CDH1 binding to APC [4, 16]: diminished binding of CDH1
- effect of peptide on APC activation (ubiquitination activity) [1, 15]: inhibit
- effect of peptide on APC activation (ubiquitination activity) [1, 16]: blocked APC activation efficiently
- binding of native APC7 to peptide matrix [5, 13]: significantly retained
- binding of recombinant APC7 to matrix-coupled peptide [5]: interacted strongly
- binding of recombinant APC5 to matrix-coupled peptide [6]: interacted with neither
- binding of holo-APC (all known subunits) to peptide matrix [7]: strongly enriched
- binding of recombinant APC6 to matrix-coupled peptide [8]: bound only in low amounts
- binding of native APC6 to peptide matrix ([8]; late-eluting Q column fractions from HeLa extracts, listed as CDH1 peptide): did not bind
Molecule: CFSKTRSTKESVSVLNLFTRIR (listed as Homo sapiens) [CDH1 C-terminal peptide, IR peptide; authentic human CDH1 C-terminus]
- binding of CDC26 to peptide matrix [9]: no binding at all; also recorded: did not bind

- binding of recombinant APC8 to matrix-coupled peptide [2]: did not bind
- input APC3 bound to matrix-coupled peptide ([3]; recombinant APC3 in insect cell lysates, western blot, % of input): about 10%
- effect of peptide on CDH1 binding to APC [4]: diminished binding of CDH1
- effect of peptide on CDH1 binding to APC [4, 17]: inhibit
- effect of peptide on APC activation (ubiquitination activity) [1]: blocked APC activation efficiently
- effect of peptide on APC activation (ubiquitination activity) [1, 17]: inhibit
- binding of recombinant APC7 to matrix-coupled peptide [5]: moderately
- binding of recombinant APC5 to matrix-coupled peptide [6]: interacted with neither
- binding of recombinant APC6 to matrix-coupled peptide [8]: bound only in low amounts
Molecule: CLRREREKASTSKSSLIHQGIR (listed as Homo sapiens) [C-terminal peptide of CDC20, IR peptide; authentic human CDC20 C-terminus]

- binding of recombinant APC3 to matrix-coupled peptide [3, 14]: did not bind
- binding of holo-APC (all known subunits) to peptide matrix [7]: not
- binding of recombinant APC6 to matrix-coupled peptide [8]: low amounts
Molecule: CAVWSLSSCKPGFGVD (Control peptide) [reference compound]

- binding result [10]: no binding
- binding result [11]: no binding
- binding result [12]: no binding
B1: CDH1 C-terminal peptide CFSKTRSTKESVSVLNLFTRIR (peptide)
peptide: CFSKTRSTKESVSVLNLFTRIR
modifications: in the peptide binding assays immobilized via the N-terminal cysteine onto maleinimide-activated POROS matrix; free peptide in the competition assays
notes: Synthetic peptide; also called CDH1 C-terminus; CDH1 peptide

- binding result [11]: no binding
- binding result [12]: no binding
B2: CDC20 C-terminal peptide CLRREREKASTSKSSLIHQGIR (peptide)
peptide: CLRREREKASTSKSSLIHQGIR
modifications: in the peptide binding assays immobilized via the N-terminal cysteine onto maleinimide-activated POROS matrix; free peptide in the competition assays
notes: Synthetic peptide; also called CDC20 C-terminus; CDC20 peptide
